Laboratory results as given in US12569538B2, “DPEP-1 binding compositions and methods of use” (Arch Biopartners, Inc., priority 2015, dated 2026).

How the values were obtained:
DPEP-1 = conditions: cited from earlier work
[1] = molecular target: T1, renal rat membrane dipeptidase (DPEP-1) (Rattus norvegicus, UniProt P31430); assay: Peptide binding to Cos-7 cells transfected with rat DPEP-1, immunofluorescence microscopy; conditions: rat DPEP-1 transfected Cos-7 cells; fluorescently conjugated peptide on ice 30 minutes
T1 construct: expressed in transfected cells; host or cells: Cos-7
T1 sequence (P31430 17-384): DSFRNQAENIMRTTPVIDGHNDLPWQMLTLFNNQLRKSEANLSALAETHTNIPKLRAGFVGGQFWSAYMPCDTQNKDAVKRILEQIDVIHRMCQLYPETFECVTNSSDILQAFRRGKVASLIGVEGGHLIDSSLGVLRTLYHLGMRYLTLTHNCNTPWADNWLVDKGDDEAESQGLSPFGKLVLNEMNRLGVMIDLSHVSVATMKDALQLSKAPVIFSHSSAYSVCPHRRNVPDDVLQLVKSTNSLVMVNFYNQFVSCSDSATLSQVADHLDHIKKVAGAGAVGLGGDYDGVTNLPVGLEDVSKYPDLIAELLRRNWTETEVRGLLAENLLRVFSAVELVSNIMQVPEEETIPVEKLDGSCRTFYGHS
Procedure: Cos-7 cells were transiently transfected with […] of renal rat membrane dipeptidase (DPEP-1) plasmid using lipofectamine 2000 (Invitrogen) reagent. 48 hours after transfection, media was removed and cells were washed with PBS. Cells were incubated with LSALT conjugated with Alexa-488 (Green), GFE-1 peptide conjugated with Alexa-568 (Red) or control peptide conjugated with Alexa-488 (Green) on ice for 30 minutes. Cells were washed and fixed using 4% paraformaldehyde and immunofluorescence microscopy was performed to assess binding. Shown are representative photomicrographs of each experimental condition (n=2).

[2] = system: neutrophil adhesion in the hepatic sinusoids; assay: Neutrophil adhesion in hepatic sinusoids after LPS, intravital microscopy; assay type: in vivo, LysMeGFP mice; conditions: for neutrophil adhesion in the hepatic sinusoids in the presence of LPS: 1 mM peptide intravenous 5 minutes after 0.5 mg/kg LPS intraperitoneal, liver imaged after 3 hours
Procedure: Six to ten week old LysMeGFP mice were injected with 1 mM dose of LSALT or GFE-1 peptides (intravenous) 5 minutes after the injection of 0.5 mg/kg of lipopolysaccharide (intraperitoneal). After 3 hours, animals were injected with ketamine and xylazine to provide general anesthesia. Fluorescently conjugated F4/80 and PECAM-1 antibodies were then administered via jugular vein cannulation and intravital spinning disk confocal microscopy was performed. The livers were imaged for an hour and the number of neutrophils were counted at different time points. Neutrophils which were stationary for >30 seconds in the liver sinusoids were counted as adherent cells. Data are representative of three independent experiments. An unpaired 2-tailed student's t-test was performed comparing LSALT, GFE-1 or control treated group against the LPS treated group (*p<0.05).

Human DPEP2 = molecular target: T2, Human DPEP2 (Homo sapiens, UniProt Q9H4A9); assay: Binding of Alexa-488 conjugated peptide to Cos-1 cells transfected with human DPEP2
T2 construct: expressed in transfected cells; host or cells: Cos-1
T2 sequence (Q9H4A9 33-463): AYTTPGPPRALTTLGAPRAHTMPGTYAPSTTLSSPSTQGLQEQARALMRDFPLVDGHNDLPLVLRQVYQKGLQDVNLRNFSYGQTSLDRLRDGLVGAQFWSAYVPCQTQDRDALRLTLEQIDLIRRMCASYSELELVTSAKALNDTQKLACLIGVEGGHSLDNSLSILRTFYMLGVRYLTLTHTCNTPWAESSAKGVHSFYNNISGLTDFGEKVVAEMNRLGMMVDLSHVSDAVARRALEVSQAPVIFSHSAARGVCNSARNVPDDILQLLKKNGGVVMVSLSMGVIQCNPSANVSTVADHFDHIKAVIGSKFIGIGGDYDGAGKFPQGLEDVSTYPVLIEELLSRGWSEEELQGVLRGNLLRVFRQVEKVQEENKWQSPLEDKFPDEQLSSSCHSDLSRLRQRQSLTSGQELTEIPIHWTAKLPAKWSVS
Procedure: (§1) Cos-1 cells were transiently transfected with either […] of human DPEP-1, DPEP2, or DPEP3 gene using lipofectamine 2000 (Invitrogen) reagent in OptiMEM medium. 24 hours after transfection, DPEP-1, DPEP2, or DPEP3 expressing cells were re-seeded on collagen coated (neutralized) wells in 24 well plates and allowed to grow for 24 hours at 37º° C. 24 hours after seeding, media was removed and cells were washed with PBS. Cells were blocked with FBS/NBSA/Tween in PBS for 30 minutes on ice. Cells were then washed with PBS and incubated with LSALT or GFE-1, conjugated with Alexa-488 (green). After incubation, cells were washed with PBS and stained with DAPI for 5 minutes on ice. Cells were then washed with PBS and fixed using 4% paraformaldehyde and immunofluorescence microscopy was performed to assess binding. Representative photomicrographs are shown for each experimental condition (n=3) in FIG. 6A. Proteins from DPEP-1. DPEP2 and DPEP3 transfected cells were isolated after 48 hours using octyl-glucoside/RIPA lysis buffer and western blot analysis was performed to assess DPEP-1, DPEP2 and DPEP3 protein expression using specific antibodies; DPEP-1 antibody (Sigma), DPEP2 (Abcam) and DPEP3 (Santacruz). Blots were stripped and reprobed with an anti-P-actin.

Human DPEP-3 = molecular target: T3, Human DPEP-3 (Homo sapiens, UniProt Q9H4B8); assay: Binding of Alexa-488 conjugated peptide to Cos-1 cells transfected with human DPEP3
T3 construct: expressed in transfected cells; host or cells: Cos-1
T3 sequence (Q9H4B8 36-463): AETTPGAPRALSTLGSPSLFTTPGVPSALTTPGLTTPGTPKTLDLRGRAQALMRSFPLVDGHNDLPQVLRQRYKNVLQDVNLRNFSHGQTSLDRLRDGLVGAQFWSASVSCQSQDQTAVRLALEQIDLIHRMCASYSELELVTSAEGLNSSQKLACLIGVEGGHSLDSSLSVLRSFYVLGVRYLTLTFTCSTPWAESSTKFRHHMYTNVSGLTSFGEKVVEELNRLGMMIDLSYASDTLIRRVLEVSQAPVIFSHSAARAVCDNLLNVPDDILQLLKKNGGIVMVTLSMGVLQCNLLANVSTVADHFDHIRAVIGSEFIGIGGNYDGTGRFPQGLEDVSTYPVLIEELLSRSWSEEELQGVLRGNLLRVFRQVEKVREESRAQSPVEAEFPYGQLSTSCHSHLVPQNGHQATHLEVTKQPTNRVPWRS
Procedure: as §1

[3] = molecular target: T4, human membrane dipeptidase (DPEP-1) (Homo sapiens, UniProt P16444); assay: Membrane dipeptidase enzyme activity assay, fluorimetric detection of D-Phe from Gly-D-Phe; assay type: biochemical; conditions: protein from human DPEP-1 transfected Cos-1 cells; Gly-D-Phe substrate, 37° C., 3 hours
T4 construct: expressed in transfected cells; host or cells: Cos-1 (protein lysate, octylglucoside)
T4 sequence (P16444 17-385): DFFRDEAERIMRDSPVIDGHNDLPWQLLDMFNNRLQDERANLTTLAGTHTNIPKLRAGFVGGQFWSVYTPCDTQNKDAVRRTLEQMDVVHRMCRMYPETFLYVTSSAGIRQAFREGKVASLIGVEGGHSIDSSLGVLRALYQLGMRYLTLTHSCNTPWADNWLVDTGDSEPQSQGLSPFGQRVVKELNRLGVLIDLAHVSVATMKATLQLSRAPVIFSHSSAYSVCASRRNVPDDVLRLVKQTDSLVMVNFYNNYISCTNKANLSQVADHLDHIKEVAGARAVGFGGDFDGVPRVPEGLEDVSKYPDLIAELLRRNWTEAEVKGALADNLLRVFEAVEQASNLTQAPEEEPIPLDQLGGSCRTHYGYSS
Procedure: Cos-1 cells were transiently transfected with […] of human membrane dipeptidase (DPEP-1) plasmid using lipofectamine 2000 (Invitrogen) reagent. 48 hours after transfection, media was removed and cells were washed with PBS. Proteins were isolated using octylglucoside in the absence of protease inhibitors. Membrane dipeptidase assay and the fluorimetric detection of D-Phe was performed exactly as described by Heywood and Hooper previously. In brief, proteins were first incubated with membrane dipeptidase substrate Gly-D-Phe either in the presence or absence of LSALT or GFE-1 peptide at 37° C. for 3 hours. The fluorescence signal generated from the conversion of D-Phe to […] in the presence of D-aminoacidoxidase and peroxidase was measured using a fluorescence plate reader.

tumor cell line = assay: Tumor burden in livers or lungs of animals injected with a tumor cell line; assay type: in vivo
[4] = molecular target: T1, renal rat membrane dipeptidase (DPEP-1); assay: Peptide binding to Cos-7 cells transfected with rat DPEP-1, flow cytometry; conditions: rat DPEP-1 transfected Cos-7 cells; Alexa-488 conjugated peptide on ice 30 minutes
Procedure: Cos-7 cells were transiently transfected with 5∧g of renal rat membrane dipeptidase (DPEP-1) plasmid using lipofectamine2000 (Invitrogen) reagent. 48 hours after transfection, cells were incubated with LSALT conjugated to Alexa-488 (green) on ice for 30 minutes. Cells were washed and flow cytometry was performed to assess binding Shown are single parameter histographs for each experimental condition (n=2).

rat DPEP-1 = molecular target: T5, rat DPEP-1 (Rattus norvegicus, UniProt P31430); assay: Binding of Alexa-488 conjugated peptide to Cos-1 cells transfected with rat DPEP-1 (immunofluorescence); conditions: Cos-1 cells transiently transfected with rat DPEP-1 cDNA, 30 minutes on ice
T5 construct: expressed in transfected cells; host or cells: Cos-1
T5 sequence (P31430 17-384): as the sequence (P31430 17-384) above
Procedure: (§2) Cos-1 cells were transiently transfected with either 3 or 5|ig of membrane dipeptidase (DPEP-1) cDNA corresponding to the rat (Shown in FIG. 5A) or human DPEP-1 (Shown in FIG. 5B) gene using lipofectamine 2000 (Invitrogen) reagent in OptiMEM medium 24 hours after transfection, DPEP-1 expressing cells were re-seeded on collagen coated (neutralized) wells in 24 well plates and allowed to grow for 24 hours at 37 °C. 24 hours after seeding, media was removed and cells were washed with PBS. Cells were blocked with FBS/NBSA/Tween in PBS for 30 minutes on ice. Cells were then washed with PBS and incubated with Alexa-488 (green) conjugated LSALT, GFE-1, control peptide or DPEP-1 antibody (1/100) (Sigma) on ice for 30 minutes. […] After incubation, cells were washed with PBS and treated with 10 mg/ml biotin transfer peptide (LSALT, GFE-1 or Control Peptide (KGAL)] for 10 minutes. Cells were then washed with PBS and biotin transfer was enabled by UV activation of the aryl azide groups for 15 minutes at 363 nm. Residual fluid was removed and monolayers were lysed either with octyl-glucoside/RIPA or 8M urea. Isolated supernatants were rotated with […] of neutr-avidin agarose beads at 4° C. for 24 hours. Beads were washed with corresponding buffers, boiled in Laemmli buffer and analyzed by western blot using a DPEP-1 specific antibody (Proteintech).

[5] = system: B16-F10 murine melanoma cells; assay: B16-F10 melanoma lung metastasis, syngeneic model; assay type: in vivo, C57-BL6 mice; conditions: 1 mM peptide intravenous 5 minutes before 100,000 B16-F10 cells; lungs harvested after 2 weeks
Procedure: 8-10 weeks old C57-BL6 mice (Charles River) were injected intravenously with 100,000 B16-F10 murine melanoma cells 5 minutes after the injection of either LSALT or GFE-1 peptide (1 mM) via intravenous tail injection. Animals were sacrificed after 2 weeks and lungs were harvested. Tissues were processed for histology as described before and bematoxylin-eosin staining was performed to assess tumor burden.

[6] = system: serum cytokines in response to LPS; assay: Plasma cytokine levels after LPS, Luminex Cytokine Arrays; assay type: in vivo, SCID mice; conditions: LPS 0.5 mg/kg intraperitoneal 5 minutes prior to intravenous peptide; plasma at 4 hours
Procedure: 6-8 weeks old SCID mice were given an intraperitoneal injection of LPS (0.5 mg/kg) 5 minutes prior to intravenous injection of LSALT peptide or a control peptide. 4 hours following injection of LPS, blood was collected by cardiac puncture and changes in plasma cytokine levels were assessed using Luminex Cytokine Arrays. Bar graphs show the levels of different inflammatory mediators released in the plasma in the presence or absence of LSALT peptide and control peptide.
6-8 weeks old SCID mice were given an intraperitoneal injection of LPS (0.5 mg/kg) 5 minutes prior to intravenous injection of LSALT peptide or a control peptide. 4 hours following injection of LPS, blood was collected by cardiac puncture and changes in plasma cytokine levels were assessed using Luminex Cytokine Arrays. Bar graphs show the level of the anti-inflammatory cytokine IL-10 released in the plasma in LSALT peptide or control peptide in two independent experiments.

human DPEP-1 = molecular target: T6, human DPEP-1 (Homo sapiens, UniProt P16444); assay: Binding of Alexa-488 conjugated peptide to Cos-1 cells transfected with human DPEP-1 (immunofluorescence, biotin transfer); conditions: Cos-1 cells transiently transfected with human DPEP-1 cDNA, 30 minutes on ice
T6 construct: expressed in transfected cells; host or cells: Cos-1
T6 sequence (P16444 17-385): T4 sequence (P16444 17-385)
Procedure: as §2

Row | Sequence | DPEP-1 binding activity in lung microvasculature (DPEP-1) | binding to Cos-7 cells with expression of DPEP-1 (immunofluorescence microscopy) [1] | neutrophil adhesion in the hepatic sinusoids in the presence of LPS [2] | binding to human DPEP2 in vitro (Human DPEP2) | binding to human DPEP-3 in vitro (Human DPEP-3) | neutrophil recruitment to the liver ([2]; mouse model of sepsis) | inhibition of membrane dipeptidase enzyme activity [3] | tumor burden in the livers or lungs (tumor cell line) | binding to Cos-7 cells with expression of DPEP-1 (flow cytometry) [4] | binding to rat DPEP-1 (rat DPEP-1) | melanoma-lung metastasis [5] | levels of serum cytokines (inflammatory mediators) in response to LPS [6] | production of the anti-inflammatory mediator IL-10 in response to LPS [6] | binding to human DPEP-1 (human DPEP-1)
1 | CGFELETC (listed as Homo sapiens) [GFE-2] | having DPEP-1 binding activity |  |  |  |  |  |  |  |  |  |  |  |  | 
2 | CGFECVRQCPERC (listed as Homo sapiens) [GFE-1, reference compound] | having DPEP-1 binding activity | enhanced the binding | inhibit neutrophil adhesion | do not Bind | do not Bind |  |  |  |  |  |  |  |  | 
3 | LSALTPSPSWLKYKAL (listed as Homo sapiens) |  | enhanced the binding | inhibit neutrophil adhesion | do not Bind | do not Bind | reduced neutrophil recruitment | does not inhibit | dramatically reduce tumor burden | enhanced the binding | Bonds | Inhibits | attenuates the levels | increases the production | Bonds
